# Source: publication PMC12712897
# Experiments:
# [1] = target: type I interleukin-1 receptor (UniProt P14778); assay: MST; fluorescently labeled IL-1R1 titrated with serially diluted IL-1Ra variants and IL-1β; Monolith NT.115-pico
# [2] = target: type I interleukin-1 receptor (UniProt P14778); assay: SPR; IL-1R1 captured on a CM5 chip via a His Capture Kit; various concentrations of IL-1Ra variants and IL-1β flowed as analytes; Biacore T200
# [3] = target: type I interleukin-1 receptor (UniProt P14778)
# [4] = target: type I interleukin-1 receptor (UniProt P14778); remark: listed apart in the source
# Sequence of UniProt P14778 (P14778 18-336): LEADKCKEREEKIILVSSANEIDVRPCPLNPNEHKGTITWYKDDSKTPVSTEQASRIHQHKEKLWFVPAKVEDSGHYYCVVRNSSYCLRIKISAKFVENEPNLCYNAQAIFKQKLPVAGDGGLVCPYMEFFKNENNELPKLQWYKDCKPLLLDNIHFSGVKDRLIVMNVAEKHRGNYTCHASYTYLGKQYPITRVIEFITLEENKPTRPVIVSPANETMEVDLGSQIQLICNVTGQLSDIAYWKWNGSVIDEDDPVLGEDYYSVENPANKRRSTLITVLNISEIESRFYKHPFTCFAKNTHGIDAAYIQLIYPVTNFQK
Substance,Kd [1],Kd [2],"reduction of IL-1β mRNA in HMC-3 cells (IL-1β 1 ng/ml + hIL-1Ra 25 ng/ml, 24 h; blocks IL-1β acting on IL-1R1) compared with RD hIL-1Ra WT [3]","reduction of IL-1β mRNA in HMC-3 cells (IL-1β 1 ng/ml + hIL-1Ra 25 ng/ml, 24 h; blocks IL-1β acting on IL-1R1) compared with iPT hIL-1Ra WT [3]","reduction of IL-6 mRNA in HMC-3 cells (IL-1β 1 ng/ml + hIL-1Ra 25 ng/ml, 24 h; blocks IL-1β acting on IL-1R1) compared with RD hIL-1Ra WT [4]","reduction of IL-6 mRNA in HMC-3 cells (IL-1β 1 ng/ml + hIL-1Ra 25 ng/ml, 24 h; blocks IL-1β acting on IL-1R1) compared with iPT hIL-1Ra WT [4]"
hIL-1Ra E127C (natural protein),7.52 nM,0.396 nM,,,,
hIL-1Ra E127D (natural protein),40.6 nM,3.5 nM,,,,
hIL-1Ra E127H (natural protein),4.59 nM,0.256 nM,,,,
hIL-1Ra E127K (natural protein),5.54 nM,0.41 nM,35%,32%,,
hIL-1Ra E127N (natural protein),6.06 nM,0.281 nM,,,,
hIL-1Ra E127Q (natural protein),3.84 nM,0.283 nM,,,53%,49%
hIL-1Ra E127S (natural protein),2.45 nM,0.248 nM,,,,
hIL-1Ra E127V (natural protein),4.61 nM,0.258 nM,,,,
